Reference: patent publication US20250295772A1 (ABATA THERAPEUTICS, published 2025)

T1: preproinsulin 73-90 peptide complexed with HLA-DRB1*04:01 (human, UniProt P01903 26-254; P01911 30-266)
T1 MHC II alpha: not shown
T1 MHC II beta: not shown
T1 peptide: GAGSLQPLALEGSLQKRG

B1: TCR-Q (TCR, V domains shown)
V domain 1: KDQVFQPSTVASSEGAVVEIFCNHSVSNAYNFFWYLHFPGCAPRLLVKGSKPSQQGRYNMTYERFSSSLLILQVREADAAVYYCAVGDTGGFKTIFGAGTRLFVKA
V domain 2: DSGVTQTPKHLITATGQRVTLRCSPRSGDLSVYWYQQSLDQGLQFLIHYYNGEERAKGNILERFSAQQFPDLHSELNLSSLELGDSALYFCASSEIAGFSTDTQYFGPGTRLTVLE
B2: TCR-S DS (TCR, V domains shown)
V domain 1: QKEVEQDPGPLSVPEGAIVSLNCTYSNSAFQYFMWYRQYSRKGPELLMYTYSSGNKEDGRFTAQVDKSSKYISLFIRDSQPSDSATYLCAMSEYSGYALNFGKGTSLLVTP
V domain 2: GITQSPKYLFRKEGQNVTLSCEQNLNHDAMYWYRQDPGQGLRLIYYSQIVNDFQKGDIAEGYSVSREKKESFPLTVTSAQKNPTAFYLCASSNRDEQYFGPGTRLTVTE

Biological target: T1, preproinsulin 73-90 peptide complexed …
Assay: cell-based or functional assay

| Binder | EC50 (nM) of CD69 upregulation, conventional CD4+ T cells + BLS-DRB1*04:01 cells, peptide titrated |
| --- | --- |
| B1 | 409 nM |
| B2 | 10000 nM |
